Test results: US20140341881A1 (DERMADIS, published 2014)

Tests used:
human kallikrein 2 (hK2) [1] = biological target: T1, human kallikrein 2 (hK2) (human, UniProt P20151 25-261); experiment: cell-based or functional assay
[2] = biological target: prostate specific antigen (PSA, hK3) (human, UniProt P07288 25-261); experiment: cell-based or functional assay
human kallikrein hK1 = human kallikrein hK1 (human, UniProt P06870 25-262); experiment: cell-based or functional assay
[3] = biological target: urokinase plasminogen activator (uPA) (UniProt P00749 21-431, limits assumed); experiment: cell-based or functional assay
human kallikrein 2 (hK2) [4] = biological target: T1, human kallikrein 2 (hK2); experiment: progress curve, pseudo-first order, fluorogenic substrate
Method: (§1) Under these conditions, a fixed amount of enzyme (2 nM) was mixed with different concentrations of inhibitor (0-800 nM) and an excess of substrate (10 μM). Each reaction was made in reaction buffer (50 mM Tris pH 7.5, 150 mM NaCl, 0,05% Triton X-100, 0.01% BSA) at 25° C. for 45 min and the rate of product formation was measured using a FLₓ800 fluorescence 96-well microplate reader (Biotek, USA). In this model, inhibition is considered to be irreversible over the course of reaction and the progress of enzyme activity is expressed by product formation (P), beginning at a rate (vz) and is inhibited over time (t) at a first-order rate (kobs), rate constant that is dependent only on inhibitor concentration.

human kallikrein 2 (hK2) [5] = biological target: T1, human kallikrein 2 (hK2); experiment: residual enzyme activity against [I]o/[E]o, fluorogenic substrate
Method: (§2) The stoichiometry of inhibition (SI) values were determined for the inhibition of rACTWT and its variants with hK2 and different other enzymes. An initial test was made with a molar excess of rACT (100 fold) over hK2, PSA, hK1, chymotrypsin (Chtr), plasma kallikrein (PK), urokinase (uPA) and human neutrophile elastase (HNE) enzymes. The reaction was carried out for 30 min at 25° C. (90 min at 37° C. for PSA) in reaction buffer (50 mM Tris pH 7.5, 150 mM NaCl, 0,05% Triton X-100, 0.01% BSA) and residual enzyme activity was measured by adding fluorescent substrates (Z-Phe-Arg-AMC for hK1, hK2 and PK, Suc-Ala-Ala-Pro-Phe-AMC for Chtr, Z-Gly-Gly-Arg-AMC for uPA, MeOSuc-Ala-Ala-Pro-Val-AMC for HNE, and CFP-TFRSA-YFP (TFRSA SEQ ID NO:137) for PSA). Activity of enzyme in presence of inhibitors was compared to uninhibited reaction. For reactions where an inhibition was observed, SI was determined by incubating different concentrations of recombinant serpins. Using linear regression analysis of fractional activity (velocity of inhibited enzyme reaction/velocity of uninhibited enzyme reaction) versus the molar ratio of the inhibitor to enzyme ([Iₒ]/[Eₒ]), the stoichiometry of inhibition, corresponding to the abscissa intercept, was obtained.

[6] = biological target: T2, human plasma kallikrein (PK) (human, UniProt P03952 20-638); experiment: cell-based or functional assay
T2 sequence (P03952 20-638 limits assumed): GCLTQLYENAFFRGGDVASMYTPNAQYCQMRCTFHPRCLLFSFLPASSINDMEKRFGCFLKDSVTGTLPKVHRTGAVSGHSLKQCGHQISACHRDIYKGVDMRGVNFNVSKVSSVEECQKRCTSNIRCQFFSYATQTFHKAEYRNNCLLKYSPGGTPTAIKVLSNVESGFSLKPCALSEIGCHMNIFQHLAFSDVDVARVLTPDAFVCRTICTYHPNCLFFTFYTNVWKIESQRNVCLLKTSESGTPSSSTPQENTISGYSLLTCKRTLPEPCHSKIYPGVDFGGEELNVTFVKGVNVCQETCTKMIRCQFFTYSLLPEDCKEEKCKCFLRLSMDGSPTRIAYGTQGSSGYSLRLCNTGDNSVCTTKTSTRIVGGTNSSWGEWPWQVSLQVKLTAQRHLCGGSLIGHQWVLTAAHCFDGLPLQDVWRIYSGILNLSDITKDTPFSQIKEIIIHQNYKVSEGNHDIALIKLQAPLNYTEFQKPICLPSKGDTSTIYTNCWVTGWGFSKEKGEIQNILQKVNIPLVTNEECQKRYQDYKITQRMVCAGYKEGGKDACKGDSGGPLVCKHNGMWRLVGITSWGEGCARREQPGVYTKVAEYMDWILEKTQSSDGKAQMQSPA

[7] = biological target: T2, human plasma kallikrein (PK); experiment: progress curve, pseudo-first order, fluorogenic substrate
Method: as §1

[8] = biological target: T2, human plasma kallikrein (PK); experiment: residual enzyme activity against [I]o/[E]o, fluorogenic substrate
Method: as §2

INHIBITION % (human kallikrein 2 (hK2) [1]) [%] | INHIBITION % [2] [%] | INHIBITION % (human kallikrein hK1) [%] | INHIBITION % [3] [%] | kon (human kallikrein 2 (hK2) [4]) [M⁻¹ s⁻¹] | SI (stoichiometry of inhibition) (human kallikrein 2 (hK2) [5]) | INHIBITION % [6] [%] | kon [7] [M⁻¹ s⁻¹] | SI (stoichiometry of inhibition) [8] | Binder
73 | 0 | 0 | 0 | 595 | 139 | – | – | – | rACT5.18 (other, recombinant ACT variant, RSL substrate peptide ERVSP; N-terminal His tag, E. coli TG1; also called MD518) MRGSHHHHHHSRHPNSPLDEENLTQENQDRGTHVDLGLASANVDFAFSLYKQLVLKAPDKNVIFSPLSISTALAFLSLGAHNTTLTEILKGLKFNLTETSEAEIHQSFQHLLRTLNQSSDELQLSMGNAMFVKEQLSLLDRFTEDAKRLYGSEAFATDFQDSAAAKKLINDYVKNGTRGKITDLIKDLDSQTMMVLVNYIFFKAKWEMPFDPQDTHQSRFYLSKKKWVMVPMMSLHHLTIPYFRDEELSCTVVELKYTGNASALFILPDQDKMEEVEAMLLPETLKRWRDSLEFREIGELYLPKFSISRDYNLNDILLQLGIEEAFTSKADLSGITGARNLAVSQVVHKAVLDVFEEGTEASAATAVKITERVSPVETRTIVRFNRPFLMIIVPTDTQNIFFMSKVTNPKQA
100 | – | 0 | 0 | 6260 | 25 | 100 | 6220 | 18 | rACT6.2 (other, recombinant ACT variant, RSL substrate peptide RRSID; N-terminal His tag, E. coli TG1; also called MD62; MD 62) MRGSHHHHHHSRHPNSPLDEENLTQENQDRGTHVDLGLASANVDFAFSLYKQLVLKAPDKNVIFSPLSISTALAFLSLGAHNTTLTEILKGLKFNLTETSEAEIHQSFQHLLRTLNQSSDELQLSMGNAMFVKEQLSLLDRFTEDAKRLYGSEAFATDFQDSAAAKKLINDYVKNGTRGKITDLIKDLDSQTMMVLVNYIFFKAKWEMPFDPQDTHQSRFYLSKKKWVMVPMMSLHHLTIPYFRDEELSCTVVELKYTGNASALFILPDQDKMEEVEAMLLPETLKRWRDSLEFREIGELYLPKFSISRDYNLNDILLQLGIEEAFTSKADLSGITGARNLAVSQVVHKAVLDVFEEGTEASAATAVKITRRSIDVETRTIVRFNRPFLMIIVPTDTQNIFFMSKVTNPKQA
100 | 0 | 0 | 0 | 2440 | 34 | – | – | – | rACT8.3 (other, recombinant ACT variant, RSL substrate peptide RGRSE; N-terminal His tag, E. coli TG1; also called MD83; MD 83) MRGSHHHHHHSRHPNSPLDEENLTQENQDRGTHVDLGLASANVDFAFSLYKQLVLKAPDKNVIFSPLSISTALAFLSLGAHNTTLTEILKGLKFNLTETSEAEIHQSFQHLLRTLNQSSDELQLSMGNAMFVKEQLSLLDRFTEDAKRLYGSEAFATDFQDSAAAKKLINDYVKNGTRGKITDLIKDLDSQTMMVLVNYIFFKAKWEMPFDPQDTHQSRFYLSKKKWVMVPMMSLHHLTIPYFRDEELSCTVVELKYTGNASALFILPDQDKMEEVEAMLLPETLKRWRDSLEFREIGELYLPKFSISRDYNLNDILLQLGIEEAFTSKADLSGITGARNLAVSQVVHKAVLDVFEEGTEASAATAVKIRGRSELVETRTIVRFNRPFLMIIVPTDTQNIFFMSKVTNPKQA
